Laboratory results from patent US7563583B2, “Heregulin variants” (Genentech, Inc., priority 1997, dated 2009).

Test system: ErbB-3 or ErbB-4 receptors
Experiment: Alanine scan of the HRG-β1 EGF-like domain by phage ELISA (FIG. 2)
Assay type: binding
Settings: ratio of variant EC50 to wild-type EC50
Procedure: The X axis lists each amino acid that was changed to alanine and its position. […] The EC50 was calculated as the concentration of soluble receptor fusion required to displace 50% of the total amount of phage bound to immobilized receptor fusion. ErbB-3 binding results are shown with black bars, and ErbB-4 binding results are shown with white bars.
Alanine-substituted variants were generated by site-directed mutagenesis according to Kunkel et al., Methods Enzymol. 154:367-82 (1987) (hereinafter “Kunkel mutagenesis”), using uracil-containing single-stranded DNA template prepared from pHRG2-g3. pHRG2-g3, which is described in Example 1, expressed HRG-β1 177-244 fused to pIII 247. A series of oligonucleotides was used to generate a series of constructs that expressed a series of variants in which consecutive residues were mutated to alanine. Phage stocks were prepared from these constructs as described in Example 1, except that PEG(8000) was used to precipitate the phage. The affinities of the alanine-substituted variants for ErbB-3-Ig and ErbB-4-Ig was determined by phage ELISA as described in Example 1.

| Molecule | effect of substitution with alanine on affinity for the ErbB-3 or ErbB-4 receptors |
| --- | --- |
| V199: HRG-β1 variant with V199 mutated to alanine (protein, left off: large carriers; small tags and cut ends, HRG-β1 variant with V199 mutated to alanine) SHLVKCAEKEKTFCVNGGECFMAKDLSNPSRYLCKCPNEFTGDRCQNYVMASFYKHLGIEFMEAEELY | two |
| E215: HRG-β1 variant with E215 mutated to alanine (protein, left off: large carriers; small tags and cut ends, HRG-β1 variant with E215 mutated to alanine) SHLVKCAEKEKTFCVNGGECFMVKDLSNPSRYLCKCPNAFTGDRCQNYVMASFYKHLGIEFMEAEELY | two |
| F229: HRG-β1 variant with F229 mutated to alanine (protein, left off: large carriers; small tags and cut ends, HRG-β1 variant with F229 mutated to alanine) SHLVKCAEKEKTFCVNGGECFMVKDLSNPSRYLCKCPNEFTGDRCQNYVMASAYKHLGIEFMEAEELY | two and five |
| N204: HRG-β1 variant with N204 mutated to alanine (protein, UniProt Q02297 1-640, looked up, variant N204A) MSERKEGRGKGKGKKKERGSGKKPESAAGSQSPALPPRLKEMKSQESAAGSKLVLRCETSSEYSSLRFKWFKNGNELNRKNKPQNIKIQKKPGKSELRINKASLADSGEYMCKVISKLGNDSASANITIVESNEIITGMPASTEGAYVSSESPIRISVSTEGANTSSSTSTSTTGTSHLVKCAEKEKTFCVNGGECFMVKDLSAPSRYLCKCQPGFTGARCTENVPMKVQNQEKAEELYQKRVLTITGICIALLVVGIMCVVAYCKTKKQRKKLHDRLRQSLRSERNNMMNIANGPHHPNPPPENVQLVNQYVSKNVISSEHIVEREAETSFSTSHYTSTAHHSTTVTQTPSHSWSNGHTESILSESHSVIVMSSVENSRHSSPTGGPRGRLNGTGGPRECNSFLRHARETPDSYRDSPHSERYVSAMTTPARMSPVDFHTPSSPKSPPSEMSPPVSSMTVSMPSMAVSPFMEEERPLLLVTPPRLREKKFDHHPQQFSSFHHNPAHDSNSLPASPLRIVEDEEYETTQEYEPAQEPVKKLANSRRAKRTKPNGHIANRLEVDSNTSSQSSNSESETEDERVGEDTPFLGIQNPLAASLEATPAFRLADSRTNPAGRFSTQEEIQARLSSVIANQDPIAV | two |
| L209: HRG-β1 variant with L209 mutated to alanine (protein, UniProt Q02297 1-640, looked up, variant L209A) MSERKEGRGKGKGKKKERGSGKKPESAAGSQSPALPPRLKEMKSQESAAGSKLVLRCETSSEYSSLRFKWFKNGNELNRKNKPQNIKIQKKPGKSELRINKASLADSGEYMCKVISKLGNDSASANITIVESNEIITGMPASTEGAYVSSESPIRISVSTEGANTSSSTSTSTTGTSHLVKCAEKEKTFCVNGGECFMVKDLSNPSRYACKCQPGFTGARCTENVPMKVQNQEKAEELYQKRVLTITGICIALLVVGIMCVVAYCKTKKQRKKLHDRLRQSLRSERNNMMNIANGPHHPNPPPENVQLVNQYVSKNVISSEHIVEREAETSFSTSHYTSTAHHSTTVTQTPSHSWSNGHTESILSESHSVIVMSSVENSRHSSPTGGPRGRLNGTGGPRECNSFLRHARETPDSYRDSPHSERYVSAMTTPARMSPVDFHTPSSPKSPPSEMSPPVSSMTVSMPSMAVSPFMEEERPLLLVTPPRLREKKFDHHPQQFSSFHHNPAHDSNSLPASPLRIVEDEEYETTQEYEPAQEPVKKLANSRRAKRTKPNGHIANRLEVDSNTSSQSSNSESETEDERVGEDTPFLGIQNPLAASLEATPAFRLADSRTNPAGRFSTQEEIQARLSSVIANQDPIAV | two and five |

More lines, now with the values ahead:

| effect of substitution with alanine on affinity for the ErbB-3 or ErbB-4 receptors | Molecule |
| --- | --- |
| two | K200: HRG-β1 variant with K200 mutated to alanine (protein, left off: large carriers; small tags and cut ends, HRG-β1 variant with K200 mutated to alanine) SHLVKCAEKEKTFCVNGGECFMVADLSNPSRYLCKCPNEFTGDRCQNYVMASFYKHLGIEFMEAEELY |
| two | P205: HRG-β1 variant with P205 mutated to alanine (protein, left off: large carriers; small tags and cut ends, HRG-β1 variant with P205 mutated to alanine) SHLVKCAEKEKTFCVNGGECFMVKDLSNASRYLCKCPNEFTGDRCQNYVMASFYKHLGIEFMEAEELY |
| two and five | S177: HRG-β1 variant with S177 mutated to alanine (protein, left off: large carriers, HRG-β1 variant with S177 mutated to alanine) AHLVKCAEKEKTFCVNGGECFMVKDLSNPSRYLCKCPNEFTGDRCQNYVMASFYKHLGIEFMEAEELY |
| two and five | V191: HRG-β1 variant with V191 mutated to alanine (protein, UniProt Q02297 1-640, looked up, variant V191A) MSERKEGRGKGKGKKKERGSGKKPESAAGSQSPALPPRLKEMKSQESAAGSKLVLRCETSSEYSSLRFKWFKNGNELNRKNKPQNIKIQKKPGKSELRINKASLADSGEYMCKVISKLGNDSASANITIVESNEIITGMPASTEGAYVSSESPIRISVSTEGANTSSSTSTSTTGTSHLVKCAEKEKTFCANGGECFMVKDLSNPSRYLCKCQPGFTGARCTENVPMKVQNQEKAEELYQKRVLTITGICIALLVVGIMCVVAYCKTKKQRKKLHDRLRQSLRSERNNMMNIANGPHHPNPPPENVQLVNQYVSKNVISSEHIVEREAETSFSTSHYTSTAHHSTTVTQTPSHSWSNGHTESILSESHSVIVMSSVENSRHSSPTGGPRGRLNGTGGPRECNSFLRHARETPDSYRDSPHSERYVSAMTTPARMSPVDFHTPSSPKSPPSEMSPPVSSMTVSMPSMAVSPFMEEERPLLLVTPPRLREKKFDHHPQQFSSFHHNPAHDSNSLPASPLRIVEDEEYETTQEYEPAQEPVKKLANSRRAKRTKPNGHIANRLEVDSNTSSQSSNSESETEDERVGEDTPFLGIQNPLAASLEATPAFRLADSRTNPAGRFSTQEEIQARLSSVIANQDPIAV |
| two | D201: HRG-β1 variant with D201 mutated to alanine (protein, UniProt Q02297 1-640, looked up, variant D201A) MSERKEGRGKGKGKKKERGSGKKPESAAGSQSPALPPRLKEMKSQESAAGSKLVLRCETSSEYSSLRFKWFKNGNELNRKNKPQNIKIQKKPGKSELRINKASLADSGEYMCKVISKLGNDSASANITIVESNEIITGMPASTEGAYVSSESPIRISVSTEGANTSSSTSTSTTGTSHLVKCAEKEKTFCVNGGECFMVKALSNPSRYLCKCQPGFTGARCTENVPMKVQNQEKAEELYQKRVLTITGICIALLVVGIMCVVAYCKTKKQRKKLHDRLRQSLRSERNNMMNIANGPHHPNPPPENVQLVNQYVSKNVISSEHIVEREAETSFSTSHYTSTAHHSTTVTQTPSHSWSNGHTESILSESHSVIVMSSVENSRHSSPTGGPRGRLNGTGGPRECNSFLRHARETPDSYRDSPHSERYVSAMTTPARMSPVDFHTPSSPKSPPSEMSPPVSSMTVSMPSMAVSPFMEEERPLLLVTPPRLREKKFDHHPQQFSSFHHNPAHDSNSLPASPLRIVEDEEYETTQEYEPAQEPVKKLANSRRAKRTKPNGHIANRLEVDSNTSSQSSNSESETEDERVGEDTPFLGIQNPLAASLEATPAFRLADSRTNPAGRFSTQEEIQARLSSVIANQDPIAV |
